{"source": "patent US20180346580A1", "about": "(INTERVET, published 2018)", "key": {"[1]": {"biological_target": "T1, HIS-tagged extracellular domain of canine IL-4 receptor alpha chain (canine)", "T1 construct": "also called canine IL-4 receptor alpha chain ECD HIS-tagged protein; extracellular domain of canine IL-4Rα", "T1 chain": "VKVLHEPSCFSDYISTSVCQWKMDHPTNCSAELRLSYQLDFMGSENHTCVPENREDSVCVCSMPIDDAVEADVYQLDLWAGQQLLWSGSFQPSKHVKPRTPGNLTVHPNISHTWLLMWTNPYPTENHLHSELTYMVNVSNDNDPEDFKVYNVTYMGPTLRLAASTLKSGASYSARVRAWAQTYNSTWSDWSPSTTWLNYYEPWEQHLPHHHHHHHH", "experiment": "ELISA on plate-coated HIS-tagged canine IL-4Rα ECD, detection with HRP goat anti-mouse IgG", "protocol": "This procedure was repeated as necessary to obtain adequate amounts of mAb from each hybridoma clone. Harvested cell suspensions were centrifuged and the supernatants were filtered through 0.2 micron filter membranes. For antibody purification, each clone's supernatant was purified using a Protein G Sepharose 4 Fast flow 5 mL column (GE Healthcare) by gravity flow. After washing with Tris-EDTA (TE) buffer pH 8.0, bound antibodies were eluted using 0.1 M glycine buffer, pH 2.7, followed by pH neutralization using 1 M Tris, pH 8.0. Antibodies were concentrated and buffer exchanged into phosphate-buffered saline (PBS) using Centriprep YM-10 kDa NMWL centrifugal filter units (Millipore). Antibody concentrations were quantified using spectrophotometry. Purified anti-canine IL-4 receptor α chain mAbs were tested for reactivity with the HIS-tagged ECD domain of canine IL-4 receptor alpha chain by ELISA as follows: HIS-tagged canine IL-4 receptor alpha chain protein is diluted to 10 μg/mL in coating buffer (Carbonate/Bicarbonate pH 9.0) and dispensed at 100 μl/well in 96-well flat bottomed ELISA plates (NUNC). The plates are incubated at 4° C. overnight. The plates are then washed three times with phosphate buffered saline containing 0.05% Tween-20 (PBST). Next, 200 μl of blocking buffer (5% skim milk in PBST) is added to each well and the plates are incubated at 37° C. for 60 minutes. The plates are then washed three times with PBST. Next, 100 μl of test mAbs diluted in blocking buffer is added to the first wells of the appropriate columns. Test mAbs are then diluted three-fold to the appropriate plate position. Following incubation of the plates at 37° C. for 60 minutes, the plates are washed three times with PBST. Next, 100 μl per well of a 1:2,000 dilution of a horseradish peroxidase conjugated goat anti-mouse IgG (KPL) is added to the plates, which are then incubated at 37° C. for 60 minutes. Then the plates are washed three times with PBST, and 100 μl/well of 3,3′,5,5′ tetramethyl benzidine, (TMB) substrate (from KPL) is added to the plates. The color reaction is allowed to develop for 5-20 minutes at 37° C. prior to measuring absorbance at 650 nm.\nVarious mouse anti-canine IL-4Rα monoclonal antibodies (mAbs) were assayed by ELISA for their ability to bind the extracellular domain of canine IL-4Rα."}, "[2]": {"biological_target": "T2, canine IL-4 receptor alpha chain (full length) expressed on the surface of CHO DG44 cells (canine)", "T2 construct": "also called cIL-4Rα; CHO-cIL-4Rα", "T2 chain": "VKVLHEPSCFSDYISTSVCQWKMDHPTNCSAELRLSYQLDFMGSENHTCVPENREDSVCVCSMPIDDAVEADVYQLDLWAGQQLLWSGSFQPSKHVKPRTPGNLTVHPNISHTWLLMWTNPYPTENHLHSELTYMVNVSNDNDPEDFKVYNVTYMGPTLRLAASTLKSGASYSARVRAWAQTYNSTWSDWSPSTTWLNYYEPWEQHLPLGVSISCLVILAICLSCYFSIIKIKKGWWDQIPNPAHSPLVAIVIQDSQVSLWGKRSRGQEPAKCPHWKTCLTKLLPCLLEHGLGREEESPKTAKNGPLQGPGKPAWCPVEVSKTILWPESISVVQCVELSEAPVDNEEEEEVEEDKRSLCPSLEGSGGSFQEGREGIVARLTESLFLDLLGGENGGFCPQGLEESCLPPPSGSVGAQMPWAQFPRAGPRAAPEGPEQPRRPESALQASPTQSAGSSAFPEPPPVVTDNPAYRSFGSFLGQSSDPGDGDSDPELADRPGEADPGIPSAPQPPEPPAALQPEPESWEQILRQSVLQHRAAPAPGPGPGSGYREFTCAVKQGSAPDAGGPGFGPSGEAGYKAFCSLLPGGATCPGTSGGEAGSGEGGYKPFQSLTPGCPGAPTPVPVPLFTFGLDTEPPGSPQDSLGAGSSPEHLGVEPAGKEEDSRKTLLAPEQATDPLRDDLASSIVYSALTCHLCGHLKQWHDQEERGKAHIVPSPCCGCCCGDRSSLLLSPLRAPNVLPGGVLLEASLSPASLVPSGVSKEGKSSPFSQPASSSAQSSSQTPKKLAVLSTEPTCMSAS", "experiment": "flow cytometry ligand blockade on CHO-cIL-4Rα cells; competitor biotinylated canine IL-4 at 0.32 µg/mL", "protocol": "Procedure: [0247] 1. CHO-DH44-canIL-4Rα cell grown to 2-4 ×10⁶ cells/mL with more than 96% viability. [0248] 2. The cells were spun down, the supernatant discarded, and the cells were suspended in FACS buffer to 2×10⁷ cells/mL. [0249] 3. The cells were distributed into a U-shape 96-well plate, 50 μl each well. [0250] 4. The anti-canine IL-4Rα mAbs in FACS buffer was diluted three-fold on a 96-well plate from top down to bottom well, starting at 50 μg/mL. [0251] 5. 50 μl of each diluted Ab was transferred into the cell plate and then incubated on ice for 30 min. [0252] 6. The cells were washed twice with FACS buffer. [0253] 7. The cells were resuspended into 100 μl of biotinylated canine IL-4 at 0.32 μg/mL in FACS buffer and incubated on ice for 30 min. [0254] 8. The cells were washed twice with FACS buffer. [0255] 9. The cells were responded into 100 μl of R-phycoerythin conjugated Streptavidin (1:1000 dilution) in FACS buffer and incubated on ice for 30 min. [0256] 10. The cells were washed twice with FACS buffer. [0257] 11. The cells were brought up to 300 μl in FACS buffer. [0258] 12. 10,000 cells were read for each sample by BD Accuri-C6. [0259] 13. The resulting readout were analyzed by FlowJo to get the mean fluorescent intensity (MFI)."}, "[3]": {"biological_target": "T2, canine IL-4 receptor alpha chain (full …)", "experiment": "flow cytometry, binding to CHO-cIL-4Rα cells"}}}
{"binder": "1A9 (antibody, V domains shown, member of the group m16; also called mAb 1A9; mouse anti-canine IL-4Rα monoclonal antibody 1A9) VH: QVPLQQSGPELVKPGASVKISCKASGYAFSSSWMNWVKQRPGKGLEWIGRIYPGDGDTKYNGKFKGKATLTADKSSSTAYMQLSSLTSEDSAVYFCARDDYDEASWGQGTLVTVSA VL: DIVMTQSQKFMSTSVGDRVSITCKASQNVRSAVAWYQQKPGQSPKSLIYLASNRHTGVPDRFTGSGSGTDFTLTISNVQSEDLADYFCLQHWNYPFTFGSGTKLEIK", "values": [{"measurement": "EC50 (read off the curve)", "setting": "[1]", "result": "~0.2", "unit": "nM"}]}
{"binder": "10F2 (antibody, V domains shown, member of the group m16; also called mAb 10F2; mouse anti-canine IL-4Rα monoclonal antibody 10F2) VH: QVHLKESGPGLVAPSQSLSITCTVSGFSLTSYGVSWVRQPPGEGLEWLGVIWGDGSTYFHSALISRLSISKDDSKSQVFLKLNSLQTDDTATYYCAKQGTIYDGYYNYAMDYWGQGTSVTVSS VL: DIVMSQSPSSLTVSVGEKVTMSCKSSQNLLYGGNQKNYLAWYQQKPGQSPKLLIYWASTRESGVPDRFTGSGSGTDFTLTISSVRAEDLAVYYCQQYYDYPYTFGGGTKLEIK", "values": [{"measurement": "EC50 (read off the curve)", "setting": "[1]", "result": "~0.3", "unit": "nM"}]}
{"binder": "mouse anti-canine IL-4Rα monoclonal antibody 6C12 (antibody, V domains shown, Hybridoma-derived mouse antibody; also called mAb 6C12) VH: QIQLIQSGPELKKPGETVKISCKASGYTFTTFGMSWVKQAPGKGLKWMGWISTYSGVPTYADDFKGRFAFSLETSASTAYLQINNLKNEDTASYFCARHTFQSRGLAYWGQGTLVTVSA VL: DIVMTQSHKFMSTSVGDRVSITCKASQDVITTVAWYQQKPGQSPKLLIYSASYRYTGVPDRFTGSGSGTDFTFTITSVQTEDLAVYYCQQHYSTPWTFGGGTKLEIK", "values": [{"measurement": "IC50", "setting": "[2]", "result": 19.3, "unit": "nM"}, {"measurement": "EC50", "setting": "[3]", "result": 8.6, "unit": "nM"}]}
{"binder": "10E10 (antibody, V domains shown, member of the group m16; also called mAb 10E10; mouse anti-canine IL-4Rα monoclonal antibody 10E10) VH: QVQLQQSGPELVKPGASVKLSCKASGYTFTTYDIHWVKQRPGQGLEWIGWIYPRDGRTTYNEKFKAKATLTVDTSSTTAYMELHSLTSEDSAVYFCARSSPFGYWGQGTTLTVSS VL: DIQMTQSSSYLSVSLGGRVTITCKASDHINNWLAWYQQKPGNAPRLLISGATSLETGVPSRFSGSGSGKDYTLSITSLQTEDAATYHCHQYWSIPYTFGGGTKVEIK", "values": [{"measurement": "binding result", "setting": "[1]", "result": "binds"}]}
{"binder": "mouse anti-canine IL-4Rα monoclonal antibody 4H3 (antibody, V domains shown, Hybridoma-derived mouse antibody; also called mAb 4H3) VH: QVQLQQPGAELVKPGASVKLSCKASGYTFTNYWIHWMKQRPGRGLEWIGRIDPNSGGTKYNEKFKSKATLTVDKPSITAYMQLSSLTSEDSAVYYCAAFGSTYGFAYWGQGTLVTVSA VL: DIVMSQSPSSLAVSAGEKVTMSCKSSQSLLNSRTRKNYLAWYQQKPGQSPKLLIYWASTRESGVPDRFTGSGSGTDFTLTISSVQAEDLAVYYCKQSYNLYTFGGGTKLEIK", "values": [{"measurement": "IC50", "setting": "[2]", "result": 3.9, "unit": "nM"}, {"measurement": "EC50", "setting": "[3]", "result": 1.6, "unit": "nM"}]}
{"binder": "mouse anti-canine IL-4Rα monoclonal antibody 2E2 (antibody, V domains shown, Hybridoma-derived mouse antibody; also called mAb 2E2) VH: EVKLVESGGGLVQPGGSLKLSCVASGFTFSDYHMHWVRQTPEKRLEWVAYISKGGGSTYYPDTEKGRFTISRDNAKNTLYLQMSRLKSEDTAMYYCARSPGPSSFYWYFDVWGTGTTVTVSS VL: DIQMTQSPASLSASVGETVTITCRASENIYSYLAWYQQKQGKSPQLLVYNAKTLAEGVPSRFSGSGSGTQFSLKINSLQPEDFGSYYCQHHYGIPVTVGVGTKLELK", "values": [{"measurement": "IC50", "setting": "[2]", "result": 2.1, "unit": "nM"}, {"measurement": "EC50", "setting": "[3]", "result": 1.2, "unit": "nM"}]}
{"binder": "mouse anti-canine IL-4Rα monoclonal antibody 4D8 (antibody, V domains shown, Hybridoma-derived mouse antibody; also called mAb 4D8) VH: EVTLVESGGGLVQPGGSLKLSCAASGFTFSDYYMYWVRQTPEKRLEWVAYISPGGGSTYYPDTIKGRFTISRDNAKNTLYLQMSRLKSEDTAMYYCTRHGSPYGSSRGAWFAYWGQGTLVTVSA VL: DIQMTQSPASLSASVGETVTITCRASENIYSYLAWYQQKQGKSPQLLVYNGKTLAEGVPARFSGSGSGTQFSLKINSLQPEDFGSYYCQHHDGIPVTFGAGTKLELK", "values": [{"measurement": "IC50", "setting": "[2]", "result": 4.2, "unit": "nM"}, {"measurement": "EC50", "setting": "[3]", "result": 1.1, "unit": "nM"}]}
{"binder": "mouse anti-canine IL-4Rα monoclonal antibody 11B6 (antibody, V domains shown, Hybridoma-derived mouse antibody; also called mAb 11B6) VH: EVQLQESGPGLAKPSQTLSLTCSVTGYSITSDYWNWIRKFPGNKLEYMGYINYSGNTYYNPSLKSRISITRDTSKNQYYLQLNSVTTEDTATYYCARYGGLRQGSWHFDVWGPGTTVTVSS VL: QIVLTQSPAIMSASPGEKVTISCSASSSVSYMYWYQQKPGSSPKPWIYRTSNLASGVPARFSGSGSGTSYSLTISSMEAEDAATYYCQQYHSYPATFGGGTKLEIK", "values": [{"measurement": "EC50 (read off the curve)", "setting": "[1]", "result": "~0.3", "unit": "nM"}, {"measurement": "IC50", "setting": "[2]", "result": 53.2, "unit": "nM"}, {"measurement": "EC50", "setting": "[3]", "result": 7.5, "unit": "nM"}]}
{"binder": "11D3 (antibody, V domains shown, member of the group m16; also called mAb 11D3; mouse anti-canine IL-4Rα monoclonal antibody 11D3) VH: QIQLVQSGPELKKPGETVKISCKASGYIFTTYGMYWVKQAPGKGLKWMGWINTYSGVPTYVDDFKGRFAFSLETSASTAYLQINNLKNEDTATYFCVVAGWFAYWGQGTLVTVSA VL: DIKMTQSPSSMYASLGERVTITCKASQDIKSYLSWFQQKPGKSPKTLIYRANILIDGVPSRFSGSGSGQDYSLTISSLEYEDMGIYYCLQYDEFPYTFGGGTKLEIK", "values": [{"measurement": "EC50 (read off the curve)", "setting": "[1]", "result": "~0.1", "unit": "nM"}]}
{"binder": "1B12 (antibody, V domains shown, member of the group m16; also called mAb 1B12; mouse anti-canine IL-4Rα monoclonal antibody 1B12) VH: EVQLQQSGPELVKPGASVKISCKASGYTFTDYYMNWVKQSHGKSLEWIGDIIPSNGGTSYNQKFKGKATLTVDKSSSAAYMELRSLTSEDSAVYYCARGISYYGNRYYFTMDYWGQGTSVTVSS VL: DIVMTQAAPSVPVTPGESVSISCRSSKSLLHSNGNTYLFWFVQRPGQSPQLLIYRMSNLASGVPDRFSGSGSGTAFTLRISRVEAEDVGVYYCMQHLEYPFTFGSGTKLDIK", "values": [{"measurement": "binding result", "setting": "[1]", "result": "binds"}]}
{"binder": "1A3 (antibody, V domains shown, member of the group m16; also called mAb 1A3; mouse anti-canine IL-4Rα monoclonal antibody 1A3) VH: EVQLVESGGDLVKPGGSLKLSCAASGFTFSDFGMHWVRQAPEKGLGWVAYISSGSGTIYYADTVRGRFTISRDNVKNTLFLQMTSLRSEDTAMYYCVRGDLYYGSSFDAYWGRGTLVTVSA VL: QIVLSQSPAILSASPGEKVTMTCRASSSVSFMFWYQQKPGSSPKPWIYDTSNLASGVPARFSGSGSGTSYSLTISRVEAEDAATYYCQQWSSNPLTFGAGTKLELK", "values": [{"measurement": "EC50 (read off the curve)", "setting": "[1]", "result": "~0.1", "unit": "nM"}]}
